We go through 5 molecules from US20100168002A1 (UNIVERSITY OF BRISTOL, published 2010).

Assay [1] concerns the target T1, CEACAM1-Fc soluble receptor construct (human, UniProt P13688 35-320).
T1 construct: also called CC1-Fc; human CEACAM1-Fc; not shown: Fc part, detected with goat anti-human Fc antibodies
T1 sequence: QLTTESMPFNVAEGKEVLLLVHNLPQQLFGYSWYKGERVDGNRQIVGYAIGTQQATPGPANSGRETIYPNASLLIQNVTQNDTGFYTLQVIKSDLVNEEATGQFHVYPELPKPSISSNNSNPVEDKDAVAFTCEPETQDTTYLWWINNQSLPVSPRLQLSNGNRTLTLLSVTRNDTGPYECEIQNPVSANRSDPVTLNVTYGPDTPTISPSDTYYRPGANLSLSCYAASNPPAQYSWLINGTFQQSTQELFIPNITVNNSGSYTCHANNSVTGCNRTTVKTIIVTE
Nature of the assay: assay not named.

For assay [2], the target named is T2, CD33-Fc (UniProt P20138 18-259).
T2 construct: Negative control construct; not shown: Fc part, detected with goat anti-human Fc antibodies
T2 sequence (P20138 18-259 limits assumed): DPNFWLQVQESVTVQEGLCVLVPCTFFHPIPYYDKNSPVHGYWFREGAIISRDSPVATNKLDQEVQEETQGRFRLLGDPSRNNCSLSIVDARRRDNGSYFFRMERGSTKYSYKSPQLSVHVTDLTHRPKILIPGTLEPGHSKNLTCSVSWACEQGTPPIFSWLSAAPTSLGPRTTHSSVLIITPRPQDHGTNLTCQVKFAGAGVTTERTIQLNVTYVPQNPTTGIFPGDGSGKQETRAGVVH
Nature of the assay: dot blot overlay of whole bacteria with soluble receptor.

Assay [3] deals with T2, CD33-Fc. The assay is described as follows: blot overlay.
For assay [4], the target named is T1, CEACAM1-Fc soluble receptor construct. The assay is described as follows: Western blot overlay with CEACAM1-Fc. In general terms: Immunoblotting shows a protein as a band on a membrane.

B1: peptide D-8 with deletion of the region 571-632 (D-8Δ) (peptide)
chain: ASSANTDRIATAELGIAENKKDAQIAKAQANENKDGIAKNQADIIKTLAKVSAANTDRIAKNKAEADASFETLTKNQNTLIEQGEALVEQNKAINQELEGFAAHADVQDKQILQNQADITTNKTAIEQNINRTVANGFEIEKNKAGIATNKQELILQNDRLNRINETNNHQDQKIDQLGYALKEQGQHFNNRISAVERQTAGGIANAIAIATLPSPSRAGEHHVLFGSGYHNGQAAVSLGAAGLSDTGKSTYKIGLSWSDAGGLSGGVGGSYRWK
notes: Outer limits as deduced for D-8 (527-863); the deletion 571-632 is printed; also called control peptide; not shown: His tag from the pQE30 vector
For the molecule B1, in assay [1], the binding result is on record as “no binding”.

B2: UspA1 protein of Moraxella catarrhalis strain MX2 (ATCC 25238) (ligand)
chain: QKVGKATNKISGGDNNTANGTYLTIGGGDYNKTKGRYSTIGGGLFNEATNEYSTIGSGGYNKAKGRYSTIGGGGYNEATNQYSTIGGGDNNTAKGRYSTIGGGGYNEATIENSTVGGGGYNQAKGRNSTVAGGYNNEATGTDSTIAGGRKNQATGKGSFAAGIDNKANADNAVALGNKNTIEGENSVAIGSNNTVKKGQQNVFILGSNTDTTNAQNGSVLLGHNTAGKAATIVNSAEVGGLSLTGFAGASKTGNGTVSVGKKGKERQIVHVGAGEISDTSTDAVNGSQLHALATVVAQNKADIKDLDDEVGLLGEEINSLEGEIFNNQDAIAKNQADIKTLESNVEEGLLDLSGRLIDQKADIDNNINNIYELAQQQDQHSSDIKTLKNNVEEGLLDLSGRLIDQKADLTKDIKALESNVEEGLLDLSGRLIDQKADIAKNQADIAQNQTDIQDLAAYNELQDAYAKQQTEAIDALNKASSANTDRIATAELGIAENKKDAQIAKAQANENKDGIAKNQADIQLHDKKITNLGILHSMVARAVGNNTQGVATNKADIAKNQADIANNIKNIYELAQQQDQHSSDIKTLAKVSAANTDRIAKNKAEADASFETLTKNQNTLIEQGEALVEQNKAINQELEGFAAHADVQDKQILQNQADITTNKTAIEQNINRTVANGFEIEKNKAGIATNKQELILQNDRLNRINETNNHQDQKIDQLGYALKEQGQHFNNRISAVERQTAGGIANAIAIATLPSPSRAGEHHVLFGSGYHNGQAAVSLGAAGLSDTGKSTYKIGLSWSDAGGLSGGVGGSYRWK
notes: Tested on whole bacteria or in whole cell lysates; migrates at >200 kDa unheated and at circa 92 kDa after boiling; also called MX2 UspA1
Regarding B2, the binding result in assay [2] was “no binding (tested: 1-2 µg ml^-1)”.

B3: recombinant UspA1 fragment D-8 (peptide)
chain: ASSANTDRIATAELGIAENKKDAQIAKAQANENKDGIAKNQADIQLHDKKITNLGILHSMVARAVGNNTQGVATNKADIAKNQADIANNIKNIYELAQQQDQHSSDIKTLAKVSAANTDRIAKNKAEADASFETLTKNQNTLIEQGEALVEQNKAINQELEGFAAHADVQDKQILQNQADITTNKTAIEQNINRTVANGFEIEKNKAGIATNKQELILQNDRLNRINETNNHQDQKIDQLGYALKEQGQHFNNRISAVERQTAGGIANAIAIATLPSPSRAGEHHVLFGSGYHNGQAAVSLGAAGLSDTGKSTYKIGLSWSDAGGLSGGVGGSYRWK
notes: Limits deduced: D = 527 (see D-7), 8 = 863 (from 6-8, E659-K863); also called D-8 polypeptide; not shown: His tag from the pQE30 vector
Regarding B3, in assay [3], the binding result is recorded as “no binding”.

B4: recombinant UspA1 fragment 6-8 (residues E659-K863 of UspA1 of MX2) (peptide)
chain: ETLTKNQNTLIEQGEALVEQNKAINQELEGFAAHADVQDKQILQNQADITTNKTAIEQNINRTVANGFEIEKNKAGIATNKQELILQNDRLNRINETNNHQDQKIDQLGYALKEQGQHFNNRISAVERQTAGGIANAIAIATLPSPSRAGEHHVLFGSGYHNGQAAVSLGAAGLSDTGKSTYKIGLSWSDAGGLSGGVGGSYRWK
notes: also called P6-P8; not shown: His tag from the pQE30 vector
As to B4, the binding result in assay [4] is “no binding”.

B5: N-terminal recombinant MX2 peptide consisting of amino acids 1 to 449 (peptide)
chain: MNKIYKVKKNAAGHLVACSEFAKGHTKKAVLGSLLIVGILGMATTASAQKVGKATNKISGGDNNTANGTYLTIGGGDYNKTKGRYSTIGGGLFNEATNEYSTIGSGGYNKAKGRYSTIGGGGYNEATNQYSTIGGGDNNTAKGRYSTIGGGGYNEATIENSTVGGGGYNQAKGRNSTVAGGYNNEATGTDSTIAGGRKNQATGKGSFAAGIDNKANADNAVALGNKNTIEGENSVAIGSNNTVKKGQQNVFILGSNTDTTNAQNGSVLLGHNTAGKAATIVNSAEVGGLSLTGFAGASKTGNGTVSVGKKGKERQIVHVGAGEISDTSTDAVNGSQLHALATVVAQNKADIKDLDDEVGLLGEEINSLEGEIFNNQDAIAKNQADIKTLESNVEEGLLDLSGRLIDQKADIDNNINNIYELAQQQDQHSSDIKTLKNNVEEGLLDLSGR
For the molecule B5, the binding result in assay [1] is “no binding”.
